Literature values, collected in article PMC6757120.

Molecular target: VEGF-A165 (Homo sapiens) (UniProt P15692)
UniProt P15692, sequence (P15692 whole entry): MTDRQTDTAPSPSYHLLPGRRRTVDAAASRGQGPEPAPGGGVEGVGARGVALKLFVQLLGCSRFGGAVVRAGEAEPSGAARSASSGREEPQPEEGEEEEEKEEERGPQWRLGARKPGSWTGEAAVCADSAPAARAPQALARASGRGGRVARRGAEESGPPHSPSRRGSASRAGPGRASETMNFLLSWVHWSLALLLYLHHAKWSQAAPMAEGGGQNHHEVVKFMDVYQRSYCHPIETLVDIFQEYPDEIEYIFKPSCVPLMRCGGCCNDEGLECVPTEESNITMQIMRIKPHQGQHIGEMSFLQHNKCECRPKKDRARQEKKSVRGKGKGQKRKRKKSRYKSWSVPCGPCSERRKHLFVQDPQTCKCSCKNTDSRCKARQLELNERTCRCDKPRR

- Kd: 3 nM
Substance: NRP1 (from UniProt O14786)
